assay: soluble on expression in E. coli; label from the status in PepcDB or PDB records

For “MKMINKLIVPVTASALLLGACGASATDSKENTLISSKAGDVTVADTMKKIGKDQIANASFTEMLNKILADKYKNKVNDKKIDEQIEKMQKQYGGKDKFEKALQQQGLTADKYKENLRTAAYHKELLSDKIKISDSEIKEDSKKASHILIKVKSKKSDKEGLDDKEAKQKAEEIQKEVSKDPSKFGEIAKKESMDTGSAKKDGELGYVLKGQTDKDFEKALFKLKDGEVSEVVKSSFGYHIIKADKPTDFNSEKQSLKEKLVDQKVQKNPKLLTDAYKDLLKEYDVDFKDRDIKSVVEDKILNPEKLKQGGAQGGQSGMSQ”, which “soluble on expression in E. coli” value is on record?
Its value is “soluble”.

With “MSLNNLEKASRLIDEENNYYARSARINYYDLVINHAHGATLIDVDGNEYIDLLASASAINVGHTNERVVKAISRQAQKLIHYTPAYFHHVPGIELSKRLAELAPGNSPKMVSFGNSGSDANDAIIKFSRAYTSRQYIVSYMGSYHGSNYGSQSLSGTSLNMTRKIGPMLPGVVHVPYPDLYRRYAGETEHDVAIRYFNAFKAPFESFLPADETACVLVEPIQGDGGIVKAPEEYMQLVYKFCHDNGILFAVDEVNQGLGRTGKMWGIQQYKDIEPDLMSVGKSLASGMPLSAVVGKKDIMQSLDAPAHIFTTSGNPVCAAASLATLNVIRDDHLVEKSAKDGEYAKQRFLEMQRHHPIIGDVRMWGLNGGIELVKDPKTKEAENDAATKVIYYAFAHGVVIITLAGNILRFQPPLVISHKQLDKALQVLDDAFTAVEQNKVEVPKDTGKIGWEGHHHHHH” as the sequence, how does the “soluble on expression in E. coli” value read?
The value was “not soluble”.

Which “soluble on expression in E. coli” value does the source give for “MSLVFYGRRLTEAIEVLKQSKISIMLANKGPLIYYRRTGGFPEGPVEKALGLSSLDDLVICPVHSVQPEVSTYLLLRLRTPFIIPPRSTATIYLKAPVAAGVYVTANGEQRLVDYFGPSVFKYALYGPPAVGQVCRFYITDIFSEVPEAGPWEAVTKVVVENTSDNYVEIRNVIYPIVYAQFYIDNMGNAYLETSKLSITSSNVGVVELRNEPPISGLPTCLKTEGGLPLPFLKPAGEKIAKFLMEFGLEGHHHHHH” here?
The value was “not soluble”.

With “ASGRRAPRTGLLELRCGAGSGAGGERWQRVLLSLAEDALTVSPADGEPGPEPEPAQLNGAAEPGAAPPQLPEALLLQREVSPYFKNSAGGTSVGWDSPPASPLQRQPSSPGPQPRNLSEAKHVSLKMAYVSRRCTPTDPEPRYLEICAADGQDAVFLRAKDEASARSWAGAIQAQIGT” as the sequence, how does the “soluble on expression in E. coli” value read?
Its value is “soluble”.

For “MYTAIVNLKTYREATGANFTRFMEKFEPVQGKFELIFSPSLLDLEKAAKCGKFRFFAQHVDAEPYGAYTGHVPMDMMIDLGITGSILNHSERRLPRDTIINTLKKASKLDFTIVLCVENAEEAKYFREYEPDFIAYEPRDLIGGDVSVSTAKPEIIEDIVKIYEGTGTSVLVGAGIKTGEDVRRSIGLGARGILVASGVVKSADPTKSLNSLIELK”, which “soluble on expression in E. coli” value is on record?
The value was “not soluble”.

Which “soluble on expression in E. coli” value does the source give for “MVDNKVTQSNKLIESSHTLTLNEKRLVLCAASLIDSRKPLPKDGYLTIRADTFAEVFGIDVKHAYAALDDAATKLFNRDIRRYVKGKVVERMRWVFHVKYREGQGCVELGFSPTIIPHLTMLHKEFTSYQLK” here?
Its value is “soluble”.

Which “soluble on expression in E. coli” value does the source give for “MISVDTMTNASSTEGISLHHISVSDLDNNCYLLTTESDEGTQGLLIDAADNAPALLDLAESAGARITAVVTTHRHFDHVRALEDVLDTTKATHFASLGDSPRLPRSADTTLGEGDTLRWAGHNLRAHILRGHTQEGLALSIKIDGIYHLFVGDSLFPRGVGKTSTPEEFNQLLSDVKTRLFDVYPDTAVVHPGHGKPTTLGTERPHLEQWRQRGW” here?
Its value is “not soluble”.

Which “soluble on expression in E. coli” value does the source give for “MGSDKIHHHHHHMIEITHGDILRADTEAIVNTVNCVGVMGRGIALQFKKAWPDNFKAYAAACNSKNVQPGKMFIFETGQLANPRFIINFPTKRHWKGASRIEDIESGLVALVADIQRLGIKSIAIPPLGAGLGGLDWLVVRDKIEAAMQPLTDVQILLYEPAGAPQNDRIAKQKEVPKMTAGRAVLIELMQRYLKGLLDPTVSLLEVHKLLYFMQEAGEPLRLKYEKAHYGPYAQNLRHVLNAIEGHFISGYADGGDKPEKELRLVPGAVKEAQEFLEQHPDTRERFTKVSELVEGFESPLGLELLATVHWLNKYEHVRSTDQVIESVHSWNTRKQLFTARQITIAEKVLARQNWLSA” here?
The value was “not soluble”.

With “MRTILIDWFSDAVREYIFRNEAVHLAVSLVDRALPMFNINKMRFQLVGITSMRIAVKYEEIFPPILSNTRHSFDGAILYWKVRLHRRNAHTILDRIMLCTENELYKKDAECCQTPRAVADRFSFSTLPPI” as the sequence, how does the “soluble on expression in E. coli” value read?
The value was “not soluble”.

Which “soluble on expression in E. coli” value does the source give for “GMTYKDYTGLDRTELLSKVRHMMSDKRFNHVLGVERAAIELAERYGYDKEKAGLAALLHDYAKELSDDEFLRLIDKYQPDPDLKKWGNNIWHGLVGIYKIQEDLAIKDQDILAAIAKHTVGSAQMSTLDKIVYVADYIEHNRDFPGVEEARELAKVDLNKAVAYETARTVAFLASKAQPIYPKTIETYNAYIPYLD” here?
The value was “soluble”.

For “ILGIKTLLAVYRLFGRKAFDLILKLVMRYYHFTGKSAREASEIYLQNLQRYAAQQNIALPKQLDSYHHLLSFGRTMLDKLAAWQGDFNVDNLTIHGQHHFEEMAQKKQGVLILGSHLGNIELCRALGRRHSHVKINALVFTQHAEQFNAVMKAVNPNSELNLIQVSSMGPDTAILLQQKIEQGEWVVIVGDRTSTSKENRVVWADFLGKPAPFPQGPFMLASVLKAPVYLLFGLRDDEANTPHFNVYFEHFSDQITLPRKERQQALEHVVQQYAHRLEHHTLQAPLQWYNFFNFWTLSNQPHDKQQ”, which “soluble on expression in E. coli” value is on record?
Its value is “not soluble”.

For “SLIDNPHAQDYWPNRGQMDVQGLAVKYTEAGRAVLSDISFSVEGGLSMGLLGRTGSGKSTLLSALLRLASTDGEISIDGISWNSVPLEKWRKAFGVVPQKVFILTGTFRMNLDPHGRYSDEELWRVADQVGLKSVIEQFPDRLDFQLENGGSVLSHGHKQLMCLARSILSKARILLLDEPSAYLDTITLQVLRKTLKHAFSDCTVILSEHKVEPLLECDSFLVIEGSSVKSYDSIQKLLNEMSDLKQAVSAAD”, which “soluble on expression in E. coli” value is on record?
Its value is “soluble”.

For “MGCSSQTHSSQKETTIPVTLHVEDAKGLPVEGVQVTIVKAPSSDEEPSTEIGEILGKTDKNGDIKWDTGRKGDYSVALTKGETSVTHHISLTEDKKDHAIPLVFKELEHHHHHH”, which “soluble on expression in E. coli” value is on record?
Its value is “soluble”.

Which “soluble on expression in E. coli” value does the source give for “MAALVDLVNFQLENAKALSTVLRQETQAITARVSSEIESIAKRKMTLIDQLRTTDQRIASHPHVNQLTEDEHLSQVVAQIQSIVLDCQQVNRVNGESLSRAQLSFNKLNNMLQHTHGKIGMTYNAGGKTHTISTLGTNIKA” here?
Its value is “not soluble”.

For “GVNPRGLGPLQIWQTDFTLEPRMAPRSWLAVTVDTASSAIVVTQHGRVTSVAVQHHWATAIAVLGRPKAIKTDNGSCFTSKSTREWLARWGIAHTTGIPGNSQGQAMVERANRLLKDRIRVLAEGDGFMKRIPTSKQGELLAKAMYALNHKERGENTKTPIQKHWRPTVLTEGPPVKIRIETGEWEKGWNVLVWGRGYAAVKNRDTDKVIWVPSRKVKPDITQKDEVTKKDEASPLFA”, which “soluble on expression in E. coli” value is on record?
Its value is “soluble”.

With “MTQKIEQSQRQERVAAWNRRTECDLAAFQNSPKQTYQAEKARDRKLCANLEEAIRRSGLQDGMTVSFHHAFRGGDLTVNMVMDVIAKMGFKNLTLASSSLSDCHAPLVEHIRQGVVTRIYTSGLRGPLAEEISRGLLAEPVQIHSHGGRVHLVQSGELNIDVAFLGVPSCDEFGNANGYTGKACCGSLGYAMVDADNAKQVVMLTEELLPYPHNPASIEQDQVDLIVKVNRVGDAAKIGAGTTRMTTNPRELLIARSAADVIVNSGYFKEGFSMQTGTGGASLAVTRFLEDKMRSRDIRADFALGGITATMVDLHEKGLIRKLLDVQSFDSHAAQSLARNPNHIEISANQYANWGSKGASVDRLDVVVLSALEIDRQFNVNVLTGSDGVLRGASGGHCDTAIASALSIIVAPLVRGRIPTLVDNVLTCITPGSSVDILVTDHGIAVNPARPELAERLQEAGIKVVSIEWLRERARLLTGEPQPIEFTDRVVAVVRYRDGSVIDVVHQVKELEHHHHHH” as the sequence, how does the “soluble on expression in E. coli” value read?
The value was “soluble”.

With “MSPVHWPIHPKEYKWTVKPSPGPHAIENSLPLMIIVRDILKVADNAREARKIINSGEVLVDGRPRKNYKFPVGFMDVVSIPRTGDVYRVLPDERGRLVLHPIDEENAGFKLCKIVNKTTIKGGRTQLNLHDGRNYLSDDEFRVGDVVKLSIPEQEILERIPFEKDSLGLVTGGRHTGEIGKIKKINITRSSMPNTAVIETGAGKTFLTLKDYVFVIGKDESVISLPGGKLEHHHHHH” as the sequence, how does the “soluble on expression in E. coli” value read?
The value was “not soluble”.

For “MIGLFNDCFPPIMDGVSLTTQNYAYWLHRKAGNVCVVTPKSPDARDAEEYPVYRYSSVPIPMRKPYRLGFPRIDWPFHERISRLSFELVHAHCPFSSGALAMQIAREQHVPIVATFHSKYRADFERAIPSRLLVNYLIRKVIRFYEAADEVWIPQAAVEETLREYGYKGRIEVVDNGNDFAGTPFLQSVRQEARRTLGIRSGEFMFLFVGQHIWEKNLGFLLDSLVRLSDIPFRMYFVGSGYASHELKQKVVELGLASKVSFVGSIVEREILKRYYVAADLFLFPSLYDNAPLVIREAAALGTPSVLIRDSTASEIISDSVNGFLSPNSTEAYSNRIREILCSTAIIKQVGEEASRTIARSWEDVAGEVYDRYNRLIKRNGNKLEHHHHHH”, which “soluble on expression in E. coli” value is on record?
The value was “soluble”.

For “MSINTSGKITSATERADSADFRTIIRNKIPLMDVRAPVEFGKGAFDLSINYPLMNNDERADVGICYKQNGQEAAIKLGNALVSGQSKARRLTQWQTFARENPQGYLYCFRGGLRSQTVQRWLKESGINYPLITGGYKALRQFLLNELEQLALHPLTILAGNTGSGKTPFLAHCANSLDLEGAAGHRGSSFGSFVTPQSNQINFENKLAEQYIRGDFSLEQRLVLEDEGRLIGSVHLPESLRNAMTLAPLVVIEESLEYRLEQIYQEYIIKMTAQYQAAYGVEQGFTAFSEYLEHGLFKVRKRLGTQRYGQLKEIQSTALTQQNKGQPQYHLDWLKPLLSEYYDPMYQYQLGLKSDRVIFRGNNSECLAFLRD”, which “soluble on expression in E. coli” value is on record?
The value was “not soluble”.

For “MCIAIPGRIERIDYPIAIVDFKGLKKEVRIDLLENPQIGDYVLVHVGMAIQKVDEEEAKKTWELLERVADETGNQAF”, which “soluble on expression in E. coli” value is on record?
Its value is “not soluble”.

With “MGSDKIHHHHHHMYLVRNMEHVEPNIDGFKYYCSRFKNHFSFDERLTPWSCPHCKIGRLIAKEENFFCQETLILHSERKPSLQYSGFFICNCCDNKTFSTGTGKNNYYCGGDDETGDFTEMYVNEYTPQFFSPSIMLFNPPASTPQSVRDSLKRAFSICWCDIPASCNVLRVTVEILLKERWPEVPIVINGQNLNKKLNELKKIEASQPKLLEILDYFLAIKWLGNNGSHDAELEERDLAVAFKIMDKALILLYSRDDNSVSEWVRMINAAEGRPIKS” as the sequence, how does the “soluble on expression in E. coli” value read?
The value was “not soluble”.

With “GPGSMLANYDYESDLRGRTDELGRAQHVDAYDKHPTFLESPYAGQEDLLRDAPQSYMDGPPPGYGGHDAYEHVDMNGGGYDLPLQPQAQTQAVDTRRLSKDRLARGGLNIFSWNTDAPTLNHPREVRERDCAELQRLRPVDSAAQRDKEVREKFEGNTQSRFLCFSESDSPGKRRGVRVFNPNNKNGNLNSGTGHENPIQNRFNEEPQPFKIRQQQPRPLPQQNLPPAGRATHSNRQESGGIPGFAGMGEGRQHNARRGRGSYRG” as the sequence, how does the “soluble on expression in E. coli” value read?
Its value is “not soluble”.

Which “soluble on expression in E. coli” value does the source give for “MKLSAQSHASIASSLREAVDKYIADGERTVVTDIHLQPKQDSGELVIFNDDDEELSRTIIEEWVDYSEDDFYTIVERILRGEINALKDTGVLDKLAIMKPYSFVLVDEDRETVTELLLIDDEDTLLLNDELLKGLDEELDAFLKDLLEKLEHHHHHH” here?
Its value is “soluble”.

With “MISKHSSRLPIWVLSPREEQQARKNLKTETYKKCANFVQAMADCAKANGMKVFPTCDKQRDEMKSCLLFYQTDEKYLDGERDKIVLEKINKLEKLCQKQSSTK” as the sequence, how does the “soluble on expression in E. coli” value read?
Its value is “not soluble”.
